Here are results for 18 molecules from patent publication US20080267974A1 (SCHERING, published 2008).

Experiment [1] has as its target T1, tumor necrosis factor alpha (TNFα) (human, UniProt P01375 77-233). The experiment in a line: cell-based or functional assay.
The target in experiment [2] is T1, tumor necrosis factor alpha (TNFα). The experiment is described as follows: affinity by IC50 ELISA (so named in paragraph 380). A general note: ELISA stands for enzyme-linked immunosorbent assay.
Experiment [3] has the same target. The experiment is described as follows: affinity by IC50 ELISA (so named in paragraph 380). The source holds these as a separate data set.
Experiment [4] has the same target. The experiment in a line: affinity by IC50 ELISA (so named in paragraph 380). This is another data set of the same source.
For experiment [5] the target is unchanged. The experiment is described as follows: affinity by IC50 ELISA (so named in paragraph 380). The source holds these as a separate data set.
For experiment [6] the target is unchanged. The experiment in a line: affinity by IC50 ELISA (so named in paragraph 380). The source holds these as a separate data set.

Values joined by “and” are separate entries in the source; they are usually repeats but may differ in a detail not shown here. Equal values may be shown once. Read-outs that look alike come from different tables or passages of the source. Where only a bound is given, the exact number is not on record here.

T1 sequence (P01375 77-233 limits assumed): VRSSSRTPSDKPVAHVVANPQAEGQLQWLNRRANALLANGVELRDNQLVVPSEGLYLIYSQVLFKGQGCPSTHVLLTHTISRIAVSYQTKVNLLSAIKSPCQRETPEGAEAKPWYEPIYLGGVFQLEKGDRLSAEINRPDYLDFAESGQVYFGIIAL

B1: MAb 695 (antibody, V domains shown)
VH: EVQLLESGGGLIQPGGSLRLSCAASGFTVSSNYMSWVRQAPGKGLEWVSVIYSGGRTYYADSVKGRFTISRDSSKNTLYLQMNSLRAEDTAVYYCARNYYGSTYDYWGQGTLVTVSS
VL: EIVLTQSPVTLSVPPGERASLSCRASQNIYTAVAWYQQKPGQAPRLLIYGASTRATGIPARFSGGGSGTDYTLTISSLESEDFAVYHCQQYHSWPLTFGGGTKLEIK
notes: also called 121 D11; H1192/L250
With B1, the “IC50, TNFα cytotoxicity assay (WEHI-13VAR cells)” value (from here on “IC50, TNFα cytotoxicity assay”) in experiment [1] is 22.9 nM. In addition, the Affinity in experiment [2] and in experiment [3] was 0.6 nM throughout.

B2: MAb 696 (antibody, V domains shown)
VH: EVQLVESGGGLIQPGGSLRLSCAASGFTVSSNYMSWVRQAPGKGLEWVSVIYSGGRTYYADSVKGRFTISRDSSKNTLYLQMNSLRAEDTAVYYCARNYYGSTYDYWGQGTLVTVSS
VL: EIVLTQSPVTLSVPPGERASLSCRASQNIYTAVAWYQQKPGQAPRLLIYGASTRATGIPARFSGGGSGTDYTLTISSLESEDFAVYHCQQYHSWPLTFGGGTKLEIK
notes: also called 121 E1B; H1193/L250
For the molecule B2, the Affinity in experiment [2] and in experiment [3] was 0.6 nM throughout.

B3: MAb 716 (antibody, V domains shown)
VH: EVQLLESGGGLIQPGGSLRLSCAASGFTVSSNYMSWVRQAPGKGLEWVSVIYSGGSTYYADSVKGRFTISRDNSKNTLYLQMNSLRAEDTAVYYCARNYYGSTYDYWGQGTLVTVSS
VL: EIVLTQSPVTLSVPPGERASLSCRASQNIYTAVAWYQQKPGQAPRLLIYGASTRATGIPARFSGGGSGTDYTLTISSLESEDFAVYHCQQYHSWPLTFGGGTKLEIK
notes: also called 142 F2; H1280/L250
On to B3, for which the “IC50, TNFα cytotoxicity assay” value in experiment [1] was found to be 31.4 nM. Further, the Affinity in experiment [2] and in experiment [3] was over 10 nM in each case.

B4: MAb 714 (antibody, V domains shown)
VH: EVQLVESGGGLVQPGGSLKLSCAASGFTVSSNYMSWVRQAPGKGLEWVSVIYRGGSTYYADSVKGRFTISRDISRNMVYLQMNSLRAEDTAVYYCARNYYGSTYDYWGQGTLVTVSS
VL: EIVLTQSPVTLSVPPGERASLSCRASQNIYTAVAWYQQKPGQAPRLLIYGASTRATGIPARFSGGGSGTDYTLTISSLESEDFAVYHCQQYHSWPLTFGGGTKLEIK
notes: also called 141 A10; H1277/L250
Turning to B4, the “IC50, TNFα cytotoxicity assay” value in experiment [1] came to 7.75 nM. Moreover, the Affinity in experiment [2] and in experiment [3] was 0.4 nM each time.

B5: MAb 1038 (antibody, V domains shown)
VH: EVQLLESGGGLIQPGGSLRLSCAASGFTVSSNYMSWVRQAPGKGLEWVSVIYSGGRTYYADSVKGRFTISRDSSKNTLYLQMNSLRAEDTAVYYCARNYYGSTMDYWGQGTLVTVSS
VL: EIVLTQSPVTLSVPPGERASLSCRASQNIYTAVAWYQQKPGQAPRLLIYGASTRATGIPARFSGGGSGTDYTLTISSLESEDFAVYHCQQYHSWPLTFGGGTKLEIK
notes: IgG1/kappa, CHO; also called H1483/L250
For the molecule B5, the Affinity in experiment [4] and in experiment [5] was 0.25 nM each time.

B6: MAb 892 (antibody, V domains shown)
VH: EVQLLESGGGLIQPGGSLRLSCAASGFTVSSNYMSWVRQAPGKGLEWVSVIYSGGRTYYADSVKGRFTISRDSSKNTLYLQMNSLRAEDTAVYYCARNYYGSLYDYWGQGTLVTVSS
VL: EIVLTQSPVTLSVPPGERASLSCRASQNIYTAVAWYQQKPGQAPRLLIYGASTRATGIPARFSGGGSGTDYTLTISSLESEDFAVYHCQQYHSWPLTFGGGTKLEIK
notes: IgG1/kappa, CHO; also called H1388/L250
In the case of B6, the Affinity in experiment [4] and in experiment [5] was 0.43 nM in each case.

B7: MAb 1029 (antibody, V domains shown)
VH: EVQLLESGGGLIQPGGSLRLSCAASGFTVSSNYMSWVRQAPGKGLEWVSVIYSGGRTYYADSVKGRFTISRDSSKNTLYLQMNSLRAEDTAVYYCARLYYGSTYDYWGQGTLVTVSS
VL: EIVLTQSPVTLSVPPGERASLSCRASQNIYTAVAWYQQKPGQAPRLLIYGASTRATGIPARFSGGGSGTDYTLTISSLESEDFAVYHCQQYHSWPLTFGGGTKLEIK
notes: IgG1/kappa, CHO; also called H1479/L250
B7: the Affinity in experiment [4] and in experiment [5] was 0.36 nM each time.

B8: MAb 1037 (antibody, V domains shown)
VH: EVQLLESGGGLIQPGGSLRLSCAASGFTVSSNYMSWVRQAPGKGLEWVSVIYSGGRTYYADSVKGRFTISRDSSKNTLYLQMNSLRAEDTAVYYCARNYYGSTFDYWGQGTLVTVSS
VL: EIVLTQSPVTLSVPPGERASLSCRASQNIYTAVAWYQQKPGQAPRLLIYGASTRATGIPARFSGGGSGTDYTLTISSLESEDFAVYHCQQYHSWPLTFGGGTKLEIK
notes: IgG1/kappa, CHO; also called H1482/L250
As to B8, the Affinity in experiment [4] and in experiment [5] was 0.12 nM each time.

B9: MAb 1036 (antibody, V domains shown)
VH: EVQLLESGGGLIQPGGSLRLSCAASGFTVSSNYMSWVRQAPGKGLEWVSVIYSGGRTYYADSVKGRFTISRDSSKNTLYLQMNSLRAEDTAVYYCARTYYGSTYDYWGQGTLVTVSS
VL: EIVLTQSPVTLSVPPGERASLSCRASQNIYTAVAWYQQKPGQAPRLLIYGASTRATGIPARFSGGGSGTDYTLTISSLESEDFAVYHCQQWHSWPLTFGGGTKLEIK
notes: IgG1/kappa, CHO; also called H1478/L332
Regarding B9, the Affinity in experiment [4] and in experiment [6] was 0.18 nM in each case.

B10: MAb 805 (antibody, V domains shown)
VH: EVQLVESGGGLIQPGGSLRLSCAVSGLNVSRDYMSWVRQAPGKGLEWISVIYRGGATMYADSVKGRFTISRDTSKNTVFLQMSRLKVADTAVYYCARNYYGSTYDYWGQGTLVTVSS
VL: EIVLTQSPVTLSVPPGERASLSCRASQNIYTAVAWYQQKPGQAPRLLIYGASTRATGIPARFSGGGSGTDYTLTISSLESEDFAVYHCQQYHSWPLTFGGGTKLEIK
notes: also called 156 H7; H1329/L250
In the case of B10, the “IC50, TNFα cytotoxicity assay” value in experiment [1] is 4.8 nM and 10.3 nM. The Affinity in experiment [2] and in experiment [3] was 0.6 nM each time.

B11: MAb 698 (antibody, V domains shown)
VH: EVQLLESGGGLIQPGGSLRLSCAASGFTVGNNYMSWVRQAPGKGLEWVSVIYSAGSTYYADSVKGRFIISRDNSKDTVYLQMNSLRVDDTAVYYCARNYYGSTYDYWGQGTLVTVSS
VL: EIVLTQSPVTLSVPPGERASLSCRASQNIYTAVAWYQQKPGQAPRLLIYGASTRATGIPARFSGGGSGTDYTLTISSLESEDFAVYHCQQYHSWPLTFGGGTKLEIK
notes: also called 131 E11; H1272/L250
Consider B11, for which the “IC50, TNFα cytotoxicity assay” value in experiment [1] was determined as 152 nM. Besides, the Affinity in experiment [2] and in experiment [3] was 2.3 nM each time.

B12: MAb 1066 (antibody, V domains shown)
VH: EVQLLESGGGLIQPGGSLRLSCAASGFTVSSNYMSWVRQAPGKGLEWVSVIYSGGRTYYADSVKGRFTISRDSSKNTLYLQMNSLRAEDTAVYYCARNYYGSTLDYWGQGTLVTVSS
VL: EIVLTQSPVTLSVPPGERASLSCRASQNIYTAVAWYQQKPGQAPRLLIYGASTRATGIPARFSGGGSGTDYTLTISSLESEDFAVYHCQQYHSWPLTFGGGTKLEIK
notes: IgG1/kappa, CHO; also called H1487/L250
As for B12, the Affinity in experiment [4] and in experiment [5] was 0.13 nM in each case.

B13: MAb 715 (antibody, V domains shown)
VH: EVQLLESGGGLIQPGGSLRLSCAASGFTVSNNYMSWVRQAPGKGLQWVAVIYSGGSTYYPDSMKGRFTISRDNSKNTLYLQMNSLRAEDTAVYYCARNYYGSTYDYWGQGTLVTVSS
VL: EIVLTQSPVTLSVPPGERASLSCRASQNIYTAVAWYQQKPGQAPRLLIYGASTRATGIPARFSGGGSGTDYTLTISSLESEDFAVYHCQQYHSWPLTFGGGTKLEIK
notes: also called 141 F2; H1278/L250
In the case of B13, in experiment [1], the “IC50, TNFα cytotoxicity assay” value was found to be 21.4 nM. The Affinity in experiment [2] and in experiment [3] was 0.6 nM each time.

B14: MAb 1007 (antibody, V domains shown)
VH: EVQLVESGGGLIQPGGSLRLSCAVSGLNVSRDYMSWVRQAPGKGLEWISVIYRGGATMYADSVKGRFTISRDTSKNTVFLQMSRLKVADTAVYYCARNYYGSTYDYWGQGTLVTVSS
VL: EIVLTQSPVTLSVPPGERASLSCRASQNIYTAVAWYQQKPGQAPRLLIYGASTRATGIPARFSGGGSGTDYTLTISSLESEDFAVYHCQQWHSWPLTFGGGTKLEIK
Consider B14, for which, in experiment [1], the “IC50, TNFα cytotoxicity assay” value worked out at 12.2 nM.

B15: MAb 699 (antibody, V domains shown)
VH: EVQLLESGGGLIQPGGSLRLSCAASGFTVSSNYMSWVRQAPGKGLEWVSVIYSGGSTYYADSVKGRFTISRDNAKNTVYLQMNSLRSEDTAVYYCARNYYGSTYDYWGQGTLVTVSS
VL: EIVLTQSPVTLSVPPGERASLSCRASQNIYTAVAWYQQKPGQAPRLLIYGASTRATGIPARFSGGGSGTDYTLTISSLESEDFAVYHCQQYHSWPLTFGGGTKLEIK
notes: also called 183 E9; H1273/L250
Regarding B15, the “IC50, TNFα cytotoxicity assay” value in experiment [1] came to 350 nM. Also, the Affinity in experiment [2] and in experiment [3] was 7.3 nM in each case.

B16: MAb 874 (antibody, V domains shown)
VH: EVQLLESGGGLIQPGGSLRLSCAASGFTVSSNYMSWVRQAPGKGLEWVSVIYSGGRTYYADSVKGRFTISRDSSKNTLYLQMNSLRAEDTAVYYCARNYAGSTYDYWGQGTLVTVSS
VL: EIVLTQSPVTLSVPPGERASLSCRASQNIYTAVAWYQQKPGQAPRLLIYGASTRATGIPARFSGGGSGTDYTLTISSLESEDFAVYHCQQYHSWPLTFGGGTKLEIK
notes: IgG1/kappa, CHO; also called H1373/L250
B16: the Affinity in experiment [4] and in experiment [5] was 0.56 nM each time.

B17: MAb 1132 (antibody, V domains shown)
VH: EVQLLESGGGLIQPGGSLRLSCAASGFTVSSNYMSWVRQAPGKGLEWVSVIYSGGRTYYADSVKGRFTISRDSSKNTLYLQMNSLRAEDTAVYYCARNYYGSTHDYWGQGTLVTVSS
VL: EIVLTQSPVTLSVPPGERASLSCRASQNIYTAVAWYQQKPGQAPRLLIYGASTRATGIPARFSGGGSGTDYTLTISSLESEDFAVYHCQQYHSWPLTFGGGTKLEIK
notes: IgG1/kappa, CHO; also called H1518/L250
With B17, the Affinity in experiment [4] and in experiment [5] was 0.1 nM each time.

B18: MAb 1028 (antibody, V domains shown)
VH: EVQLLESGGGLIQPGGSLRLSCAASGFTVSSNYMSWVRQAPGKGLEWVSVIYSGGRTYYADSVKGRFTISRDSSKNTLYLQMNSLRAEDTAVYYCARTYYGSTYDYWGQGTLVTVSS
VL: EIVLTQSPVTLSVPPGERASLSCRASQNIYTAVAWYQQKPGQAPRLLIYGASTRATGIPARFSGGGSGTDYTLTISSLESEDFAVYHCQQYHSWPLTFGGGTKLEIK
notes: IgG1/kappa, CHO; also called H1478/L250
Turning to B18, the Affinity in experiment [4] and in experiment [5] was 0.32 nM each time.
